# Laboratory results: the supplement of paper PMC7125110
# ± gives the standard error. Variants at the floor of the assay were thinned out.
# B1: glmS ribozyme (parent)
# chain: AUAAAAGCGCCAGAACUACAGAAAUGUAGUUGACGAGGAGGAGGUUUAUCGAAUUUUCGGCGGAUGCCUCCAAA
# Variants of: B1
# Test: self-cleavage kobs at 10000 uM GlcN6P; higher = faster cleavage; RNA array
# Conditions: with glucosamine-6-phosphate
# Summary of the method: (§1)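 kcat and KM were obtained from weighted Michaelis–Menten fits across concentrations of kobs values. Those came from one- or two-exponential decay fits to per-tile medians normalised to baseline and to non-cleaving reference variants. The variants were barcoded ribozymes transcribed in situ by E. coli RNA polymerase on sequenced MiSeq chips and tracked through a hybridised Cy3 probe at 37 °C, with 40 μM to 10 mM glucosamine-6-phosphate in HEPES/KCl/Mg(OAc)2 buffer flowed in.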
row,Variant,self-cleavage kobs at 10000 uM GlcN6P [s⁻¹]
1,G7U G51A U56G,< 1e-05
2,A14U A48C U55A,3.3e-05 ± 1.5e-05
3,A14C U54G C70A,7.96e-05 ± 1.8e-05
4,G38A G59C U65C C70A,< 1e-05
5,G40C A53G G66C,0.000137 ± 2.8e-05
6,A6C G9A C34A G40C G43A C50U U54A C58G C68U,< 1e-05
7,U31C G38C U45A C50A C58U,< 1e-05
8,G35U U47C G51U,< 1e-05
9,C16U G62C,< 1e-05
10,A48U G59U C68A,< 1e-05
11,A6U G7U C8U G32A G51U,< 1e-05
12,A39C G44C C68A,< 1e-05
13,C10U C16U A39C U65C,< 1e-05
14,A6C U30G G35U,< 1e-05
15,C11A U55A U56C,2.5e-05 ± 1.1e-05
16,G7A A53G,3.18e-05 ± 9.4e-06
17,A64G G66C C67A,0.000252 ± 7.2e-05
18,A15G A33G G59U,< 1e-05
19,G7A C34U U57A,< 1e-05
20,G13U A39G C71A,0.000285 ± 6.4e-05
21,A6G A12C A33G U45A G62U,< 1e-05
22,A33C G44C G60A,< 1e-05
23,C11A A52G,3.16e-05 ± 9.6e-06
24,U31A G43C C68U,0.000192 ± 5.2e-05
25,A6U G9A G29C C50U U69G,9.44e-05 ± 3.8e-05
26,G13U G38C G62A,< 1e-05

row,Variant,self-cleavage kobs at 10000 uM GlcN6P [s⁻¹]
1,A6G C50G C68G,2.86e-05 ± 1.1e-05
2,G38U C50G C71A,9.8e-05 ± 1.9e-05
3,C8A U65G,< 1e-05
4,A33G A48C,< 1e-05
5,U30G G35A G40C C68G,< 1e-05
6,C8U U31C A52U,< 1e-05
7,G7A A64G,4.09e-05 ± 9.6e-06
8,C11U G29U G40U G62U,< 1e-05
9,A12C A14G U54A,0.0236 ± 0.0056
10,A39U G63U U65A,< 1e-05
11,G13C C71A,4.74e-05 ± 1.4e-05
12,G38U A39C G44A,< 1e-05
13,G44U C58U G62U C68A,< 1e-05
14,G13U C16U U31A A33U G35C,< 1e-05
15,C16U G41U U47A,0.000489 ± 7.1e-05
16,C11A A53C,2.2e-05 ± 1.1e-05
17,G7U G32U G59C G62U U65G,< 1e-05
18,A14G A39G G44C C68U,3.6e-05 ± 1.5e-05
19,A15G U49G G60A,< 1e-05
20,C8A C34U A64U C68U,< 1e-05
21,G7A U55G C67U C70G,4.07e-05 ± 1.8e-05
22,U30C G44U C58G,< 1e-05
23,A36C U54A G59A,< 1e-05
24,A12G A39C G66U,6.62e-05 ± 1.8e-05
25,G29C G32U C70A,0.000104 ± 2.2e-05
26,A33G A36G A39U A53G,< 1e-05

row,Variant,self-cleavage kobs at 10000 uM GlcN6P [s⁻¹]
1,G9A A15U G29U C68G,< 1e-05
2,U31C C67G C70A,< 1e-05
3,A14G U31G C67U,0.00162 ± 0.00041
4,U46A A48G,3.66e-05 ± 1.3e-05
5,A14C U55G C67G,0.000215 ± 3.8e-05
6,G9C G32C C71U,< 1e-05
7,A12C G32A G38A,< 1e-05
8,G35A U49G C61U,< 1e-05
9,C10G U57G C67A,< 1e-05
10,G9U C34G C70G,< 1e-05
11,C10U A15U U45A,< 1e-05
12,A33C G43A G44C C61A C67U,< 1e-05
13,A39G G43U G44U C67G,5.34e-05 ± 1.9e-05
14,A14G C34G G44U A52C C58A G59A G63U C71G,< 1e-05
15,A48U G59U A64G,< 1e-05
16,U30A A42G U46A,0.000409 ± 9.1e-05
17,C8U A36U U45A,< 1e-05
18,G38A U49A G66U,< 1e-05
19,A42G U49A C50G,< 1e-05
20,U47G U54G G62U,< 1e-05
21,A12G U46G A53U,9.96e-05 ± 1.8e-05
22,A6C G43A G59C C70U,< 1e-05
23,A12U U31G U55C U65A,0.0008 ± 0.00013
24,C10A U45A U46C C70A,< 1e-05
25,A14U U30G U31C,0.000695 ± 0.00016
26,A52U U55G A64U,< 1e-05

row,Variant,self-cleavage kobs at 10000 uM GlcN6P [s⁻¹]
1,C8A A14G C70G,< 1e-05
2,A33U G35C C71G,< 1e-05
3,G9U G62U,< 1e-05
4,C11A A15G U57A G62U,< 1e-05
5,U65G G66U C70A,6.2e-05 ± 1.7e-05
6,G37A G40A C58U G66C,< 1e-05
7,C16A U30C A53C C70G,< 1e-05
8,A15U C50U C61G A64G,< 1e-05
9,A15C A42G U47G A53G,0.000696 ± 9.1e-05
10,G41C C58A C61U,< 1e-05
11,C8U A12U A42C C70U,< 1e-05
12,A39C G40A C58G,< 1e-05
13,U30A G32A G41C G51C C61A C71U,< 1e-05
14,U55A C58U U65C,< 1e-05
15,A6U U47G C50A,< 1e-05
16,U55G C61A C71G,< 1e-05
17,G9U A33U G40A C58U,< 1e-05
18,U30A A33U G37C U69A,< 1e-05
19,G9C U54G,< 1e-05
20,A14U U45G C61U,< 1e-05
21,G7A G35U U57A,< 1e-05
22,A15G U46G C67G,0.000339 ± 6e-05
23,C8G A15U A39U G51A A52G G60U,< 1e-05
24,G32A U45G U47A,0.000614 ± 0.00014
25,A39G U65G C70U,0.0203 ± 0.0059
26,U31C G40U G66A,0.00025 ± 7.4e-05

row,Variant,self-cleavage kobs at 10000 uM GlcN6P [s⁻¹]
1,C11U C34A G43C,< 1e-05
2,G51C G60U C71A,< 1e-05
3,G9U A42U U55G,< 1e-05
4,A33U A42C U49A C58G C61G,< 1e-05
5,A53G U57G C67G C68A,< 1e-05
6,U56C G66A C71U,0.000503 ± 0.00011
7,A6C C50G A64U,3.95e-05 ± 2e-05
8,G38C G44C A53U G62C,< 1e-05
9,A14C A36G G51U,< 1e-05
10,A12C U49A G66C C71U,< 1e-05
11,A36U A39C U65C,< 1e-05
12,A53G C58U C70U,0.000123 ± 2.7e-05
13,G9C A39U A42U,< 1e-05
14,G40U A48G C70A,3.93e-05 ± 9.6e-06
15,A6C G7C G32A A52U,< 1e-05
16,G32A A42G A53G,0.00295 ± 0.00072
17,G43A U55G U57A U65G,< 1e-05
18,U30A G38C,< 1e-05
19,A6U G51C G63C U69G,< 1e-05
20,A12U G41A U54C,0.000963 ± 0.00021
21,U31A G32A G62U,< 1e-05
22,C8U A15C G32U A36U A39C A48U,< 1e-05
23,G44U U65A,5.28e-05 ± 1.3e-05
24,C11A G44U C67U,4.33e-05 ± 2.1e-05
25,G44A U46A,0.000375 ± 6.2e-05
26,G13C U56G A64G C67A,3.32e-05 ± 1.4e-05

row,Variant,self-cleavage kobs at 10000 uM GlcN6P [s⁻¹]
1,U30G A42U,3.53e-05 ± 8.7e-06
2,C10G U55C,< 1e-05
3,A48U A52G U55A A64G,4.66e-05 ± 1.1e-05
4,A15C C16G U31A,0.000253 ± 7.3e-05
5,A15G G32U G43U C61G G63U A64G G66A,< 1e-05
6,A12U A42U C70U,0.00014 ± 3.1e-05
7,G37A G44A,2.6e-05 ± 1.2e-05
8,A33U G41C A52U A53C,< 1e-05
9,C10G C50U G62U C70G,< 1e-05
10,A6G G35C U46C,< 1e-05
11,A39U G44A C67G,0.00582 ± 0.0014
12,A14G U49G U55C,0.00199 ± 0.00057
13,U46G C61G C71G,4.27e-05 ± 1.8e-05
14,G9U U30C U31C G43A U65A C68U C71A,< 1e-05
15,G13A A39G C67U,0.000112 ± 2.2e-05
16,C8U G32C A36C G38C,< 1e-05
17,U57C U65C C71A,< 1e-05
18,A14U G44U U45G U46G,4.76e-05 ± 1.9e-05
19,G9U G13A U55G,< 1e-05
20,A14C G40U U56G,0.00853 ± 0.0032
21,A39C G59A C68A,< 1e-05
22,U54G G59U C71U,4.41e-05 ± 1.6e-05
23,U30C U31G A33G U69G,< 1e-05

# Variants of: B1
# Test: self-cleavage kobs at 2500 uM GlcN6P; higher = faster cleavage; RNA array
# Conditions: with glucosamine-6-phosphate
# Summary of the method: as §1
row,Variant,self-cleavage kobs at 2500 uM GlcN6P [s⁻¹]
1,A42G A48U U54G,0.000367 ± 0.0001
2,A6U G32C C34G U55G U56A,< 1e-05
3,U31C U49C U65G,< 1e-05
4,G13U A39G C71A,0.000144 ± 4.9e-05
5,G26U G32U U55G,0.000168 ± 8.2e-05
6,A15G U47G U57A C71G,5.79e-05 ± 2.3e-05
7,G32U G37U C58U,< 1e-05
8,G40U G66U C67U,< 1e-05
9,C16G U30A G35U A36C A53U,< 1e-05
10,C50A U56G C70A,8.66e-05 ± 2.8e-05
11,A33U C34G A36U C67U,< 1e-05
12,U30C G38U A42C,< 1e-05
13,C19A G44A,0.000112 ± 4e-05
14,G38A G43U A48G C58G,< 1e-05
